pKd: −log10 of the molar value.
What was measured:
Experiment in all cases: radioligand binding
[1] = target: CD45Δ826/CD44(Reg.I) fusion protein (mouse) (UniProt P06800)
[2] = target: CD44(GP85)Δ320, purified from transfected COS cells (mouse)
[3] = target: CD44(GP85)Δ355, purified from transfected COS cells (mouse)

Ankyrin binding (cpm) [1]: 1160 cpm
pKd [2]: 8.59
pKd [3]: 9.00
Substance: Erythrocyte ankyrin (from UniProt P16157 1-1881) (natural protein)
